Results on one molecule are retold here after paper PMC7810988, “Inositol pyrophosphates promote the interaction of SPX domains with the coiled-coil motif of PHR transcription factors to regulate plant phosphate homeostasis”.

For the data set, the target named is AtPHR1 MYB-CC (Arabidopsis thaliana, UniProt Q94CL7 222-358). Nature of the data set: GCI; 4 C, 300 mM NaCl; GCI at 4 C: AtPHR1 in 20 mM HEPES pH 7.5, 300 mM NaCl; OsPHR2 in 20 mM HEPES pH 7.9, 200 mM NaCl. EMSA: LI-COR Odyssey kit buffer without optional components, 50 nM oligo, 30 min at room temperature, 5% TBE gel in 0.5x TBE. As to conditions: protein: recombinant; tags: His6 N-terminal, TEV-cleaved (untagged); chain copies: 2; label: 5'-biotin on strand 1; blunt. (Mobility shift assays separate free from complexed probe on a gel.)

One may read the Kd as the free concentration of one partner at which half of the binding sites on the other are occupied at equilibrium, for simple one-to-one binding.

Sequence of AtPHR1 MYB-CC (Q94CL7 222-358): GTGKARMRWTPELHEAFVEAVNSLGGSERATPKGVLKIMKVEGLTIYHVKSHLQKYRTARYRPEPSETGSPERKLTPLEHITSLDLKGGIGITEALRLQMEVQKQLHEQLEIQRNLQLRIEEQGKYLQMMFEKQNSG

B1: pAtSPX1 biotin (dsDNA)
DNA 1: CAGAGAAAAAAGGATATTCTAATTAGAAACCTTAAGAATATTCTTTTTAATCCC
DNA 2: GGGATTAAAAAGAATATTCTTAAGGTTTCTAATTAGAATATCCTTTTTTCTCTG
With B1, the equilibrium dissociation constant (Kd) is approximately 200 nM.
